Measurements from publication PMC8640019.

Assays:
Assay in all cases: SPR
Details in all cases: remark: other sources report otherwise
[1] = substrate: CIS F116L-EloB/C (human), Q9NSE2
[2] = substrate: CIS F74, F116L-EloB/C (human), Q9NSE2
[3] = substrate: CIS R78G-EloB/C + F3 (human), Q9NSE2
[4] = substrate: CIS F74L-EloB/C + F3 (human), Q9NSE2
[5] = substrate: CIS R78G, F116L-EloB/C + F3 (human), Q9NSE2
[6] = target: CIS-Elo B/C + F3 (human), Q9NSE2
[7] = substrate: CIS F74, F116L-EloB/C + F3 (human), Q9NSE2
[8] = substrate: CIS R78G-EloB/C (human), Q9NSE2
[9] = target: SOCS2 FL + F3 (human), O14508
Sequence of SOCS2 FL + F3 (human), O14508 (O14508 whole entry, chain 1 of 3): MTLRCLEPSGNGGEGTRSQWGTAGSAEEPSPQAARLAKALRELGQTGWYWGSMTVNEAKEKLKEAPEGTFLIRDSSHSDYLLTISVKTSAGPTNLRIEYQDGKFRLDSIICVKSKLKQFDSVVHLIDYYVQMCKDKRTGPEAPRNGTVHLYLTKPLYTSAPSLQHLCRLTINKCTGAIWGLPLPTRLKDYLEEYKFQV
Sequence of SOCS2 FL + F3 (human), O14508 (Q15370 whole entry, chain 2 of 3, further chain): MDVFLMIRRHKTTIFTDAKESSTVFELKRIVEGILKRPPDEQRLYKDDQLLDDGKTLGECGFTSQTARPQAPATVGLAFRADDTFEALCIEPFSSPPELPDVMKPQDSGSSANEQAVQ
Sequence of SOCS2 FL + F3 (human), O14508 (Q15369 17-112, chain 3 of 3, further chain): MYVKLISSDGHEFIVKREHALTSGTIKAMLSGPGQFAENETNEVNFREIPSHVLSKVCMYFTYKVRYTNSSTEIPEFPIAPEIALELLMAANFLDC

[10] = substrate: CIS R78G, F116L-EloB/C (human), Q9NSE2

IC50 [1]: 6.6 µM
IC50 [2]: 7 µM
IC50 [3]: 2 µM
IC50 [4]: 4.2 µM
IC50 [5]: 8.8 µM
IC50 [6]: 4.3 µM
IC50 [7]: 3.7 µM
IC50 [8]: 6.7 µM
IC50 [9]: 0.2 µM
IC50 [10]: 20 µM
B1: GHR pY595 peptide (peptide)
chain: PVPDYTSIHIV
modifications: here or on the partner: phosphotyrosine at 595
